Read-outs that look alike come from different tables or passages of the source.
How the values were obtained:
[1] = target: zinc uptake regulator (Zur) from Xanthomonas campestris pv. campestris (XcZur) (Xanthomonas campestris pv. campestris strain 8004); test: AUC
[2] = target: zinc uptake regulator (Zur) from Xanthomonas campestris pv. campestris (XcZur) (Xanthomonas campestris pv. campestris strain 8004); test: AUC; remark: listed apart in the source
crystal structure = target: the molecule itself; test: crystal structure
XcZur [3] = target: T1, XcZur (Xanthomonas campestris pv. campestris …, UniProt Q4UWS5 1-172); test: BLI
T1 sequence: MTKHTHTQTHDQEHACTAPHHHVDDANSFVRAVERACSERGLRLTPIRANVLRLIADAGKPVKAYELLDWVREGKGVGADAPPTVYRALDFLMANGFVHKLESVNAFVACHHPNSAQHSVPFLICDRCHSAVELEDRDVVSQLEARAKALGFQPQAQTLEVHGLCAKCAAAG

XcZur [4] = target: T1, XcZur; test: EMSA
XcZur [5] = target: T1, XcZur; test: EMSA; remark: listed apart in the source

zinc uptake regulator (Zur) from Xanthomonas campestris pv. campestris (XcZur) (natural protein)
percent as dimers [1]: 32.9%
percent as monomers [1]: 60.5%
percent as trimers [1]: 5.8%
stoichiometry N [1]: 2
percent as dimers [2]: 60.3%
percent as monomers [2]: 28.9%
percent as tetramers [2]: 4.9%
stoichiometry N [2]: 2

B1: N-terminal extension deleted XcZur (T17-G172) (domain or fragment)
chain: TAPHHHVDDANSFVRAVERACSERGLRLTPIRANVLRLIADAGKPVKAYELLDWVREGKGVGADAPPTVYRALDFLMANGFVHKLESVNAFVACHHPNSAQHSVPFLICDRCHSAVELEDRDVVSQLEARAKALGFQPQAQTLEVHGLCAKCAAAG
binding result (crystal structure): binds

B2: P0267-Biotin (dsDNA)
DNA 1: GGCGAGTTGTTATACAGTAACATTTCTAG
DNA 2: CTAGAAATGTTACTGTATAACAACTCGCC
Kd (XcZur [3]): ~22 nM

B3: P2472-Biotin (dsDNA)
DNA 1: AAGTGTTATAAAGTAACACTAGTCGCG
DNA 2: CGCGACTAGTGTTACTTTATAACACTT
Kd (XcZur [3]): ~38 nM

B4: P3788-Biotin (dsDNA)
DNA 1: ATTGATACGTTATCACATTGCGCCCCGCGCT
DNA 2: AGCGCGGGGCGCAATGTGATAACGTATCAAT
Kd (XcZur [3]): ~63 nM

B5: EcZur-box (dsDNA)
DNA 1: AGAAGTGTGATATTATAACATTTCATGACTATG
DNA 2: CATAGTCATGAAATGTTATAATATCACACTTCT
binding result (XcZur [4]): binds

B6: P2976 (dsDNA)
DNA 1: TTAGGGCCACGCGGTTGCGGAGACTATTACACCGGCGCGTGATGAGATCACATCACGTG
DNA 2: CACGTGATGTGATCTCATCACGCGCCGGTGTAATAGTCTCCGCAACCGCGTGGCCCTAA
binding result (XcZur [5]): no binding
